Test results from article PMC10204293, “S100A6 inhibits MDM2 to suppress breast cancer growth and enhance sensitivity to chemotherapy” (Breast Cancer Research : BCR, 2023).

B1: GST-S100A6 EF-hand I (1–47) (domain or fragment)
chain: not shown
notes: S100A6, human, EF-hand I, residues 1–47; also called N-terminal EF-hand of S100A6; source: E. coli BL21 (DE3), purified (GST-tag purification kit)
B2: GST-S100A6 EF-hand II (48–90) (domain or fragment)
chain: not shown
notes: S100A6, human, EF-hand II, residues 48–90; also called C-terminal EF-hand of S100A6; source: E. coli BL21 (DE3), purified (GST-tag purification kit)

Biological target: T1, HA-MDM2 full-length (1–491) (human, UniProt Q00987 1-491)
T1 construct: Cloned into a T7 promotor-HA expression vector; also called HA-tagged full-length MDM2; source: E. coli BL21 (DE3), purified (His-tag purification kit)
Assay: pull-down; about 100 µg of a mixture of GST, GST-S100A6 or its fragments with HA-MDM2 or its fragments on 100 µL glutathione agarose, overnight at 4 °C; blot with anti-HA
Conditions: both partners purified

Row | Binder | binding result
1 | B1 | binds
2 | B2 | binds
